In paper PMC11611905, “Recruitment of autophagy initiator TAX1BP1 advances aggrephagy from cargo collection to sequestration” (The EMBO Journal, 2024):

Assays:
Settings in all cases: both partners purified
[1] = target: T1, 10x-His-GFP-TAX1BP1 (UniProt Q86VP1 1-789); test: peptide or protein array; entire NBR1 sequence spotted as 12 aa peptides on a membrane; GFP-TAX1BP1 at 50 µg/ml in SEC buffer, 2 h at RT; detection by western blot
T1 construct: TAX1BP1, full-length (FL); also called GFP-TAX1BP1 FL; recombinant TAX1BP1; source: Sf9 insect cells (pLIB vector, baculovirus), purified; not shown: GFP, N-terminal, kept
T1 sequence (Q86VP1 whole entry): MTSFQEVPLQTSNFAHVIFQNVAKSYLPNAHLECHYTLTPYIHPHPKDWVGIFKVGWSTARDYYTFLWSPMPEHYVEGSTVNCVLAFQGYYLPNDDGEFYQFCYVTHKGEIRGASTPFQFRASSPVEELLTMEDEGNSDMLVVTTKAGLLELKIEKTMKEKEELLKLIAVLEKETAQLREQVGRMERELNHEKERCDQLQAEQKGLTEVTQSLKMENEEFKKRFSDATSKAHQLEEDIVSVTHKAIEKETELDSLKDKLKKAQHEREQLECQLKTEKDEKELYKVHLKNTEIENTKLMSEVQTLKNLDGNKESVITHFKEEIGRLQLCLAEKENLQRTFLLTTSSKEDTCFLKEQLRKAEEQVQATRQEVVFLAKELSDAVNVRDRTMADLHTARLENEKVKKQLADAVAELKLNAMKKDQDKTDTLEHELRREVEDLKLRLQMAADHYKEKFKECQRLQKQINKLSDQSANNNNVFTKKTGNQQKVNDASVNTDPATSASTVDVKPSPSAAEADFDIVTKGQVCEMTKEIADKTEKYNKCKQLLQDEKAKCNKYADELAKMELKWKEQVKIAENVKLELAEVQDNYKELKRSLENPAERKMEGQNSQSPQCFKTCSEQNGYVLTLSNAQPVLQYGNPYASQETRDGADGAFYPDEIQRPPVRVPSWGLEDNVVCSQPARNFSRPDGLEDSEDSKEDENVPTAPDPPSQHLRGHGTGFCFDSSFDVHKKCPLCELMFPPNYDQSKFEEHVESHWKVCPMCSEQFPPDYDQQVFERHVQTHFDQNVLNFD

[2] = target: T2, 10x-His-mCherry-TAX1BP1 (UniProt Q86VP1 1-789); test: microscopy-based protein interaction assay; mCherry-TAX1BP1 on RFP-trap beads, GFP-tagged NBR1 fragment CC2-LIR1 as prey
T2 construct: TAX1BP1, full-length (FL); also called mCh-TAX1BP1; mCherry-TAX1BP1 FL; source: Sf9 insect cells (pLIB vector, baculovirus), purified; not shown: mCherry, N-terminal, kept
T2 sequence (Q86VP1 whole entry, the tested form may be a part): as the sequence (Q86VP1 whole entry) above

[3] = target: T3, GFP-NBR1 (purified) (UniProt Q14596 1-966); test: microscopy-based protein interaction assay; GST-TAX1BP1 (FL, N-domain, point mutants; 2.5 µM) as bait on GSH beads, 1 µM GFP-NBR1 as prey; SEC buffer (25 mM HEPES pH 7.5, 150 mM NaCl, 1 mM DTT); 15-30 min at RT; confocal imaging of the beads
T3 construct: NBR1; source: HEK293 (pCAGGSsH-C vector, VBCF ProTech facility), purified; not shown: GFP, N-terminal, kept
T3 sequence (looked up): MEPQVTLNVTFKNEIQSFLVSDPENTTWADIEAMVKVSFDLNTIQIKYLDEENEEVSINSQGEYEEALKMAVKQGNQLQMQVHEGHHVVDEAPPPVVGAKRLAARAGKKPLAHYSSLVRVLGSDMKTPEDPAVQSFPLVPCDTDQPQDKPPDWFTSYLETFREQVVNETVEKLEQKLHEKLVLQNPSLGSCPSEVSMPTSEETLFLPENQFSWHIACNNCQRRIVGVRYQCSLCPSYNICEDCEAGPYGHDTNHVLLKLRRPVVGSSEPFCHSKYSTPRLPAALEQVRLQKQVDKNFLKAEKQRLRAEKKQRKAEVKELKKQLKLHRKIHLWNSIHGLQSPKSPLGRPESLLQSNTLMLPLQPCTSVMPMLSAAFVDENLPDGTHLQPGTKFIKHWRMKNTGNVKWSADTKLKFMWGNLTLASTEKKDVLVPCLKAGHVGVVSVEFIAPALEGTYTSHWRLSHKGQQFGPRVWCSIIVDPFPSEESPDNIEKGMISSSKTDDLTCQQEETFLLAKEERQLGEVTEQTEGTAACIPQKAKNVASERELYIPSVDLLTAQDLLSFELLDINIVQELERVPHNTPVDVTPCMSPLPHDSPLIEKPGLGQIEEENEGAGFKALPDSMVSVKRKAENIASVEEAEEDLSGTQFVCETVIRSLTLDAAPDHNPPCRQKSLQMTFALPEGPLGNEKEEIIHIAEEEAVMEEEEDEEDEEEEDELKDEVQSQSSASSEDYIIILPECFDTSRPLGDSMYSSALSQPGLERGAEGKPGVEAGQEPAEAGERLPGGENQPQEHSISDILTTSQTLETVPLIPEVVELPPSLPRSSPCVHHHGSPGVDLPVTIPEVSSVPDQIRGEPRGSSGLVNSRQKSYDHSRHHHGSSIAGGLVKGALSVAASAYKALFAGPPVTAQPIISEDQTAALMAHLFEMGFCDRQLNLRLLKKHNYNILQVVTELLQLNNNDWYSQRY

B1: NBR1 peptides of binding region 1 (aa347-aa365) (peptide, UniProt Q14596 347-365, looked up)
peptide: RPESLLQSNTLMLPLQPCT
notes: NBR1 aa347-365, covered by overlapping 12 aa spots of the peptide array; also called parts of the FW domain; source: synthetic peptides spotted on a membrane (Peptide Synthesis facility of the IMP)
binding result [1]: binds

B2: GFP-CC2-LIR1 (NBR1 aa685-aa757) (domain or fragment, UniProt Q14596 685-757, looked up)
chain: LGNEKEEIIHIAEEEAVMEEEEDEEDEEEEDELKDEVQSQSSASSEDYIIILPECFDTSRPLGDSMYSSALSQ
notes: the methods name the purified protein GST-GFP-CC2-LIR1 and give two ways of elution (TEV cleavage or glutathione) without saying which was used; also called GST-GFP-CC2-LIR1; source: E. coli Rosetta pLysS, purified (GSH beads, SEC); not shown: GFP, N-terminal, kept
binding result [2]: binds

B3: NBR1 peptides of binding region 2 (aa731-aa749) (peptide, UniProt Q14596 731-749, looked up)
peptide: DYIIILPECFDTSRPLGDS
notes: NBR1 aa731-749, covered by overlapping 12 aa spots of the peptide array; source: synthetic peptides spotted on a membrane (Peptide Synthesis facility of the IMP)
binding result [1]: binds

B4: GST-N-domain (aa420-506 of TAX1BP1) (domain or fragment, UniProt Q86VP1 420-506, looked up)
chain: DQDKTDTLEHELRREVEDLKLRLQMAADHYKEKFKECQRLQKQINKLSDQSANNNNVFTKKTGNQQKVNDASVNTDPATSASTVDVK
binding result [3]: binds
